Consider one substance from publication PMC8496693.

Assay [1] has as its target mChe-INPP5E (UniProt Q9NRR6). The experiment in a line: VIP assay (fluorescence intensity of mChe-INPP5E on GST-anti-GFP Nb beads). As to conditions: lysates of HEK293T cells coexpressing both constructs; three independent experiments; parent: 100; read off a plot.
Assay [2] concerns the target mChe-INPP5E (UniProt Q9NRR6). The experiment in a line: immunoblotting of anti-GFP Nb precipitates (band intensity of mChe-INPP5E). As to conditions: lysates of HEK293T cells coexpressing both constructs; three independent experiments; parent: 100; read off a plot.

ARL13B(WT)-EGFP, Q3SXY8 AAEA (RVEP mutated to AAEA), sequence (Q3SXY8 other isoform, or with tags, fused parts or gaps AAEA (RVEP mutated to AAEA)): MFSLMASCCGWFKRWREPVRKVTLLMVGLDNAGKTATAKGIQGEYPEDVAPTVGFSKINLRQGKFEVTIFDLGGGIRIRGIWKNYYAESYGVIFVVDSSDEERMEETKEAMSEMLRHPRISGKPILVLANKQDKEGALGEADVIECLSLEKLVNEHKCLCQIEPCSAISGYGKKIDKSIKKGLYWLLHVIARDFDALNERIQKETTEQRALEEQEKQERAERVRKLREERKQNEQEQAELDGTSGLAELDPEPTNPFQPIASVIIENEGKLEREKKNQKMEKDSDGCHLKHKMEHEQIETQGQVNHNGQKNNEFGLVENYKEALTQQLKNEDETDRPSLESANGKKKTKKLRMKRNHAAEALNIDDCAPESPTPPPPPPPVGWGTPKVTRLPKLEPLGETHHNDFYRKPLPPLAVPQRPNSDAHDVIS
mChe-INPP5E, sequence (Q9NRR6 whole entry): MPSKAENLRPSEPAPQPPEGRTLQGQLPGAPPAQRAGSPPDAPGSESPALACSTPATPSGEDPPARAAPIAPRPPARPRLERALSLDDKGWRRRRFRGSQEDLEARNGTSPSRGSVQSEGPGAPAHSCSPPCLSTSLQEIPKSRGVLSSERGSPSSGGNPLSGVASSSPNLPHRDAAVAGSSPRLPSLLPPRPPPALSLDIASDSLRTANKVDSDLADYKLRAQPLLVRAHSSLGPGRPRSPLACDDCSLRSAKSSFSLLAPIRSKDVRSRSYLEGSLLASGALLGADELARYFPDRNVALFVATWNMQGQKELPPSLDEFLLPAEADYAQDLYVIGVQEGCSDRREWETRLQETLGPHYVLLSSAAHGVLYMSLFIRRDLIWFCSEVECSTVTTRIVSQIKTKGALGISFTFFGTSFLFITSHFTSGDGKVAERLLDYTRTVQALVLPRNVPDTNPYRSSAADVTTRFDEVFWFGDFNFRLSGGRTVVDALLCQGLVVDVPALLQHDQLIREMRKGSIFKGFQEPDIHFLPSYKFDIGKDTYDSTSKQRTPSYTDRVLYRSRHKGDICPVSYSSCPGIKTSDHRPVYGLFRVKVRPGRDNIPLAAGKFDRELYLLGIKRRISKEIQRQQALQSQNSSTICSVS

As for “ARL13B(WT)-EGFP, Q3SXY8 AAEA (RVEP mutated to AAEA)”, the percent of parent (% of ARL13B(WT)-EGFP) in assay [1] amounted to 100; in assay [2] it was 110.
